In paper PMC8924211 (Nature Communications, 2022) one finds Kd data, which are given here for one molecule.

Assay in all cases: AlphaScreen or HTRF; saturation binding: HEK293 cells transfected with SNAP-tagged receptor (WT or mutant) and labelled with SNAP-Lumi4-Tb, incubated with increasing concentrations of galanin-A2 in the presence or absence of 100 uM unlabeled galanin, 1 h at room temperature; HTRF ratio 665 nm/620 nm
What all share (settings): one partner purified

In assay [1] the target is T1, SNAP-GAL2R V259^6.58A (human, UniProt O43603 1-387, V259^6.58A, Lumi4-Tb on the SNAP tag).
T1 construct: also called V259A; source: HEK293, transfected, on cells; not shown: SNAP tag, N-terminal, kept
T1 sequence (looked up): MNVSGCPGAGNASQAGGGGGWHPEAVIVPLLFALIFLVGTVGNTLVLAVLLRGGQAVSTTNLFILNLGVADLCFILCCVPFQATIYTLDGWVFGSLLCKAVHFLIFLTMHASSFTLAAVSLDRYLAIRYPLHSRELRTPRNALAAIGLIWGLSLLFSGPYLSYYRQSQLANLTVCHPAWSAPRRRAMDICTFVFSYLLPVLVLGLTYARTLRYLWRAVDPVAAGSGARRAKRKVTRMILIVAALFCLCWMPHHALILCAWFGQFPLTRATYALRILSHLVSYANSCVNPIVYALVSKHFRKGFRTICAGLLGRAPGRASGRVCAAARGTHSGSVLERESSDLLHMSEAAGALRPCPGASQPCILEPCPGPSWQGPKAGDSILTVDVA

The target of assay [2] is T2, SNAP-GAL2R A170^ECL2S (human, UniProt O43603 1-387, A170^ECL2S, Lumi4-Tb on the SNAP tag).
T2 construct: also called A170S; source: HEK293, transfected, on cells; not shown: SNAP tag, N-terminal, kept
T2 sequence (looked up): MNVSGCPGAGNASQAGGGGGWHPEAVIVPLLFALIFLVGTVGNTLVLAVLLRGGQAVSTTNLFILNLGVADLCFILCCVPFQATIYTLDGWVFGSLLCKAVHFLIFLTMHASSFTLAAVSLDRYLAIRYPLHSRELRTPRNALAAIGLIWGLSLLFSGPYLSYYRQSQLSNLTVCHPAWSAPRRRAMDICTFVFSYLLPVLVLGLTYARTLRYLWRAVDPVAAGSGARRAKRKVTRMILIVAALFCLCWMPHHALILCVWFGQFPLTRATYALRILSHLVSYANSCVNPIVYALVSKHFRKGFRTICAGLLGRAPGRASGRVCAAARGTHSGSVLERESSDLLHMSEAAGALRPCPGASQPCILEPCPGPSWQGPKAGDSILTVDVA

Assay [3] deals with T3, SNAP-GAL2R H252^6.51A (human, UniProt O43603 1-387, H252^6.51A, Lumi4-Tb on the SNAP tag).
T3 construct: also called H252A; source: HEK293, transfected, on cells; not shown: SNAP tag, N-terminal, kept
T3 sequence (looked up): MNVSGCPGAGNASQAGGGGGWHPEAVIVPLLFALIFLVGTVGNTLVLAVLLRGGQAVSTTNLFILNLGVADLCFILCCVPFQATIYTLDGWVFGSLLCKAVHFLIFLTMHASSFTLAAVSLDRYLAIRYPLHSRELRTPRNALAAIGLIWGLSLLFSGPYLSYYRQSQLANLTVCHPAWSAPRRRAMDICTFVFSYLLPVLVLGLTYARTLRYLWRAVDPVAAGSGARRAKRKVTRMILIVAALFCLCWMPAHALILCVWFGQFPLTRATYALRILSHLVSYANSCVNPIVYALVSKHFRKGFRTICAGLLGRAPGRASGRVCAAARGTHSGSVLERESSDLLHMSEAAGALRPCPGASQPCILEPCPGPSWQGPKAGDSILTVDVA

The target of assay [4] is T4, SNAP-GAL2R L172^ECL2A (human, UniProt O43603 1-387, L172^ECL2A, Lumi4-Tb on the SNAP tag).
T4 construct: also called L172A; source: HEK293, transfected, on cells; not shown: SNAP tag, N-terminal, kept
T4 sequence (looked up): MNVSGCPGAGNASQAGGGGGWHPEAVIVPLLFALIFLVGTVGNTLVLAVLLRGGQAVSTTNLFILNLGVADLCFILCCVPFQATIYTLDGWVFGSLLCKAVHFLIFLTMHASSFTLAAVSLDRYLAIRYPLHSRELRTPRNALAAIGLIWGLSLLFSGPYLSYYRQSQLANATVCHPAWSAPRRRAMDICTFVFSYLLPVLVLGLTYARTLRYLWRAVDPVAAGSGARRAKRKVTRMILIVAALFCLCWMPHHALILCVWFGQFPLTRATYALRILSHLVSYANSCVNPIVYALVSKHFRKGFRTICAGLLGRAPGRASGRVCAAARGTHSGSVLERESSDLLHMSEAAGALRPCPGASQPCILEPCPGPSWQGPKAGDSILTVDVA

B1: galanin-A2 (full-length galanin labeled with the dye A2 on an additional cysteine at the C-terminal end) (peptide)
peptide: GWTLNSAGYLLGPHAVGNHRSFSDKNGLTSC
modifications: dye A2 on the additional C-terminal cysteine
notes: numbers count on: the mature protein; additional cysteine at the C-terminal end of the peptide, carries the dye A2; source: synthetic peptide (synthesized by Vazyme, China)
In the case of B1, the Kd is 180 nM in assay [1], 33.5 nM in assay [2], 246 nM in assay [3] and 51.6 nM in assay [4].
